The target in one data set is HIV-2 capsid (CA) (UniProt P04590).
The subject of data set [1] is HIV-1 capsid (CA), wild type, newly synthesized from HIVGFP (NL4-3 derived).
Data set [2] deals with HIV-1 capsid mutant G89V (pLaiΔEnv-GFP3 G89V) (UniProt P03348).

cyclophilin A (CypA): the “infection and activation of MDDC” value in the data set with HIV-2 capsid (CA) was “has the potential to infect and activate MDDC in a CypA-dependent manner”. Further, in data set [1], the “CD86 expression in MDDC infected with HIVGFP(G)+SIVVLP(G), Cyclosporin A added at different times” value is on record as “Up to 24 h, Cyclosporin A (CsA) reduces CD86 expression”; the “CD86 up-regulation in MDDC after shRNA knockdown of CypA” value was “prevented CD86 up-regulation following infection with HIV-1 (HDVIRESRFP(G), encoding the reporter RFP), but not following treatment with LPS”; the “MDDC activation (CD86 up-regulation) under Cyclosporin A” value was “prevented MDDC activation following infection with HIVGFP(G) and SIVVLP(G), but not following treatment with LPS”. In addition, the “CD86 expression in infected MDDC” value in data set [2] is “resulted in substantially reduced CD86 expression at similar levels of infection”.
